These results are taken from patent US5858728, “Monoclonal antibody against LPS core” (Common Services Agency, dated 1999).

The assay concerns the target bovine serum albumin (bovine, UniProt P02769). As to the kind of experiment: ELISA, plate coated with BSA as negative control (panel of purified LPS). How it is done:
Microtitre plates (flat bottomed; microtest III flexible assay plates: Becton Dickinson, Falcon 3912) are coated with purified LPS at 2 µg/ml in coating buffer (diethylenebarbituric acid-Na salt 30 mM. Na acetate 30 mM, NaCl 116 mM; pH 4.5). 50 µl aliquots of the LPS solution are distributed into each well. Unrelated protein (BSA, 2% in PBS pH 7.2/0.02% sodium azide) is used to determine non-specific binding. Plates are incubated for 1 hr at 37° C. and then overnight at 4° C. in a humidified chamber. Plates are washed 4 times with a washing solution i.e. phosphate buffered saline (PBS) pH 7.2, 0.05% vol/vol Tween 20, 0.02% sodium azide. Plates are blocked with 250 µl/well of 2% BSA in PBS/sodium azide 0.02% for 3 hrs at room temperature. Plates are washed again.
Antibody solutions are prepared in PBS/BSA 2%/sodium azide 0.02% at various dilutions, e.g. 1 µg/ml, 100 ng/ml, 10 ng/ml and 1 ng/ml. 50 µl aliquots of these solutions are distributed in the wells of the precoated plates. Incubation is carried out overnight at room temperature. […] After 1 hr, absorbance is read at 405 nm using a Titertek Multiskan ELISA reader (MCC/340, Flowlabs).

B1: murine monoclonal antibody WN1 222-5 (antibody, V domains shown)
VH: EVKLVESGGGLVQPGGSLSLSCAASGFTFSDYYMTWVRQAPGKAPEWLALIRNKRNGDTAEYSASVKGRFTISRDYSRSILHLQMNALRTEDSATYYCVRQGRGYTLDYWGQGTSVTVSS
VL: DIQMNQSPSSLSASLGDTISITCRASQNINIWLSWYQQKPGNVPKLLIYKASNLHTGVPSRFSGSGSGTDFTLIISSLQPEDIATYYCLQGQSYPRTFGGGTKLEIK
As for B1, the binding result was “no binding (tested: 100 ng/ml)”.

B2: murine monoclonal antibody WN1 58-9 (antibody, V domains shown)
VH: EVKLVESGGGLVQPGGSLRLSCAASGFTFIDYYMTWVRHPPGEAPEWLALIRNYRNGDTAEYSASVRGRFTISRDDSQSILYLQMNALRAEDSATYYCVRQGRGYTLDYWGQGTSVTVSS
VL: DIQMNQSPSSLSASLGDTITITCRARLNINIWLSWYQQKAGNIPKLLISKASNLHTGVPSRFSGSGSGTDFTLTISSLRPEDIATYYCLQGQSYPRTFGGGTKLEIK
On to B2, for which the binding result was “no binding (tested: 100 ng/ml)”.
